Experimental data reported in paper PMC6409194 (European journal of pharmacology, 2019).

Target: calmodulin (UniProt P0DP23 1-149)
Test: other fluorescence titration

FKKAFQNVLRIQCLCRKQSSQHAAGYTLH (domain or fragment)
Kd: 3.8 µM
